Test results published in patent US20230226096A1 (Orna Therapeutics, Inc., priority 2020, published 2023).

B1: Pigeon picornavirus B (nucleic acid)
DNA: TTTATTTAGCTGTTAAGTTTTATTTGTGCCGAGACCCCATAGTAGGATCTTGGTGTTCCACATTAAGCTCTCCCGACCACACATCCAAACGATAGGCGGTGTAAGGGCTCCCTGGCTAAGTGTTTACTCATTGCTAGGGAAGTGTTGCGACCCGTTACCAGTAGGAATACAGGAGGTCTTAGTTGCCTAACCAGATAAAGTGGTGCTGAAATATTGCAAGCTCAATGTCTGGCGAACGACGGACTACCGTTGAACTATTGTTAACGCCCGCGTGTGTAGGCAACACACGGGTTAGTAGGTCACTTACATTGACATCCGTGCCGGGAAAGCGGATCTGAGCTATCGATTGCCTGATAGGGTGCCGGCGGGCGCGGTACGTGTGGTATAGTCCGCTGTCTTGGGGTATGGCGTCTACTCGGTTTTGTTGTCGTTTTGGAATGTCCCATGTCGGAGATGTCGTTACCGGTGTTTGCTTTACTTGTGCACGAATAAGAAAACAGAGTTTGGAGTTTTGGAAGTTAATGGATAACATCAAGTTTCCATTGCGTTCCTCGTGCATTTTAGGCCAGAAAATCGACCACAAAATCGAGA
B2: Porcine enterovirus 9 (nucleic acid, listed as Enterovirus sp.)
DNA: GAACCTTAGAAGTTTACACAAACAAAGACCAATAGGAGTCCAACACCCAGTTGGATTGCGGTCAAGCACTTCTGTTTCCCCGGACCTAGTAGTGATAGGCTGTACCCACGGCCGAAGATGAACCCGTCCGTTATCCGGCTACCTACTTCGGGAAGCCTAGTAACATTCTGAAGTCTCTGAGGCGTTTCGCTCAGCACGACCCCGGTGTAGATCGGGCTGATGGGTCTCCGCATACCCCACGGGCGACCGTGGCGGAGGCCGCGTTGGCGGCCCGCCTATGGCGAAAGCCATAGGACGCCTCTTAGATGACAGGGTGTGAAGAGCCTACTGAGCTGGGTAGTAGTCCTCCGGCCCCTGAATGCGGCTAATCCTAACCACGGAGCGTCCACCAGCAATCCAGCTGGCAGGGCGTCGTAACGGGCAACTCTGTGGCGGAACCGACTACTTTGGGTGTCCGTGTTTCCTTTTGATCCTATTTTGGCTGCTTATGGTGACAACGATAAGTTGTTATCATAAAGCTCTTGGGTTGGCCACCTGGAAAAAGTTATCAGTGTTTGATATTGTTCGGCTCTCACGCCTACCAATAAGACAAGCCCTATATTTACTTGTTGCATTTTACTCGTCAGAAGAAATCACAGAGTATCATTTGGATTTGTTACTCACATTAAGGACAAG
B3: Porcine reproductive and respiratory syndrome virus 2 (nucleic acid)
DNA: ATGACGTATAGGTGTTGGCTCTATGCCTTGGCATTTGTATTGTCAGGAGCTGTGACCATTGGCACAGCCCAAAACTTGCTGCACAGAAACACCCTTCTGTGATAGCCTCCTTCAGGGGAGCTTAGGGTTTGTCCCTAGCACCTTGCTTCCGGAGTTGCACTGCTTTACGGTCTCTCCACCCCTTTAACC
B4: Quail picornavirus QPV1 (nucleic acid)
DNA: TTTGCATCAGTTCGCCCCTCCCCTCACCATACCTTTTTCCCCTCTTTAGGACTGATACTTGGTTATGATGAGCAGAGGATTTCGCAAGTTATGCTTCTTGATAAAAAGTAATTCACGAATCATGGGATTATAGCCTGGAAGTGAACACTCATGTGGCAAGTGGGTTAGTAGCTCTCCATGTTCCCATGTGCAGTGGACTGACAACAGTGAGTTCGGGGTTGTGTAGTAAAGGGAAAGTATTACTTACCCGCACCTGCTATACGTGGTGTACGTAGGATACGAGTTAGTAGTGCTTAGCAACTTTAAACTGGTGCTGAAATATTGCAAGGTCACTGAAGTTGTGAACGCGAACGCTCCGCCACTGCCATGTATAGCGTGCAATGCATAAATGGTGCACTACATGATACGAGGGAATGGGAAACCCTCCATGGCCGAATGCAGGGTGACAGCCTGCCGGCGGATGCCTGTTGTTAGTATAATCCGTTGTTTGCCAC
B5: Ludopivirus (nucleic acid, listed as Ludopivirus sp.)
DNA: TAGACCCCCACCTAGCCCTTTTCCCCGTCAGTGGGGGGCTTACTCACTGGGCATCTGTTAATCTGGCCTAACTAGATTGACACCACTCCCTTGGAACGTAACTCCACGCTAACTCACTGGCTCTACGCACAGACACACGGTCTTTCTGCTATCCCCGGGGAAGATACCAGATGGCGACCGGCTGTCCCAGCGGCCTAGTAGCTACTCGGGTTGAGTACCCACCACGGTTTTGACGCCTGCTAAAATTCAAGAGACAGAGGTAGGGGTGCTTAGTGTGTGGGGGAAGTTCCCACAAGCGAGGCAAAGCATTGCTCCCTCGCGTCACCGGGTGCAAGGTAAATTGGCTGGACTTCCGCTCTACCCTTGCTACTCGCCCTCTTCGGAGGGTTCGAAGTGACACTAGGTATACGCATGGTTGGGAAACCATGCCTGGCCTACTACTGGGTGATAGCCTGGCGGCGGGTCCGTCTCTTGGCTTATACCCGTTGATTTGGGAT
B6: Pestivirus strain Aydin (nucleic acid, listed as Pestivirus sp.)
DNA: GTATACGAGATTAGCTCATACTCGTGTACAAATTGGACGTAGCAAATTTAAAAATTCGGATAGGGTCCCCATCCAGCGACGGCCGAACGGGGTTAACCATACCTCTAGTAGGACTAGCAGACGGATGGACTAGCCACAGTGGTGAGCTCCCTGGGAGGTCTAAGTTCTGAGTACAGAACAGTCGTCAGTAGTTCAACGCTGGTAAACCCCAGCCTTGAGATGCTACGTGGACGAGGGCATGCCCAAGACACACCTTAACCTGGACGGGGGTCGTCCAGGTGAAAGTACCCATCTTTGGGTGCTGGGAGTACAGCCTGATAGGGCGCTGCAGAGGCCCACTGACAGGCTAGTATAAAAATCTCTGCTGTACATGGAAC
B7: Picornavirus HK21 (nucleic acid)
DNA: AAACGGGAGGATCGGCTTTGGCTTATCCTCTTAATAGTCTACAAAACTGGGCTGACTGGTGGGGGAGCTACTAGATCCGGGAGAGGACTAGTTACCCCGCGTAACTTCCCTTTTTGTCACTCCCTCCACCTACCCCTTCCCTGTCCCTTAGACTCTTAAGTAGGTGTGCAGGCCTGGCCCCCCGGAAATGGGCAAATCGGACGTTTGCGTGTAGGGTCGTTCTGAAAGGTGGGGCCCACTCCACCGTAGTAGGATCTTCCTGTTTCACGTTTAAACCTCTCCGGGCAGGTATCGCTAGACACTAGGCTGTATAGGATGGCACGCACTTAGGTTTCGCACCTTCCTAGTGCGCCAAGATCCCGCTTTTGAGCTCAAGTACATGGTTCTTTGTAAGATGTCTAACCAGAGGAGGTGGTGCTGAAATATTGCAAGCCACTCTGGCGAACGTCCACTGCATTGCCTGGAACAGGCTCTCTAGCGCCCTCCACTGGTAGCGCGGTGGTGGGTTAGTAGGATACCTATATGGACAGGGGATGCGGGAATACCCCTCACTAGCTAGTGACTGGTTGATCGACTGGCGGCGGATCCAGTGATACTTGCATAATCCGCAGACTTGGGAG

The molecules below were run on HEK293 cells. Conditions: luminescence from secreted Gluc in supernatant 24 hours after transfection of HEK293 cells; circular RNA encoding Gluc with the named IRES (UTR truncated to 675 nt).
Type: cell-based, human
Work on B1 yielded an Expression of 1.24E+05.
B2 was tested, and the Expression was 3.20E+07.
B3 showed an Expression of 1.29E+05.
In the case of B4, the Expression is reported as 6.55E+07.
Work on B5 yielded an Expression of 1.05E+05.
B6 was tested, and the Expression was 3.11E+06.
B7 showed an Expression of 4.09E+05.
